# Literature values as cited in publication PMC4186963.
# Molecular target: CD28 (Homo sapiens) (UniProt P10747)
substance,measurement,value
CD80 (from UniProt P33681),Kd,200 nM
